T1: soluble endoglin (sENG) (human, UniProt P17813 26-586)
T1 construct: signal peptide in the construct; endoglin (ENG), human, residue 1-586 of the cDNA; source: HEK EBNA, transfected (pCEP4), purified from conditioned medium (HiTrap Excel, HiTrap Q, Superdex 200)
T1 sequence (looked up): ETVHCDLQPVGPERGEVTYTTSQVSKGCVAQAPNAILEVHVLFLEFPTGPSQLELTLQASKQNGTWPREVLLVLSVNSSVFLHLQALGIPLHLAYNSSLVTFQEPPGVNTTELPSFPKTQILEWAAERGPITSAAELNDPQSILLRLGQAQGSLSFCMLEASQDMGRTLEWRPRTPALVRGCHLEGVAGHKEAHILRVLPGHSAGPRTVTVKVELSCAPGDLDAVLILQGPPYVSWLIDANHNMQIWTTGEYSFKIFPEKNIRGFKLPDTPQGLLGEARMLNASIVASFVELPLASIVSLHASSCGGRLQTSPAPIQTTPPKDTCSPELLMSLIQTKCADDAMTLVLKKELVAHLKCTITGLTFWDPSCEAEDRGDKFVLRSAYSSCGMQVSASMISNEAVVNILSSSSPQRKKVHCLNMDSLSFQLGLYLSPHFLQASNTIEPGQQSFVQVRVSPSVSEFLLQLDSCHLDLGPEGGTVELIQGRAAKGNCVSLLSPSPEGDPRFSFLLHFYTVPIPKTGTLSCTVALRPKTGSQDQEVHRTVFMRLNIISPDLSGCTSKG


What was measured:
[1] = biological target: the molecule itself; assay: crystal structure; BMP10 GF-domain with ALK1 ECD, 2.3 Å and 2.8 Å, space group P6_(5)22
[2] = biological target: T2, ALK1 extracellular domain (ALK1 ECD) (human, UniProt P37023 22-118); assay: as above; conditions: both partners purified
T2 construct: activin receptor-like kinase 1 (ALK1), human, cDNA NM_000020, amino acids 22-118; Released from DsbA-(His)6 by TEV protease; also called ALK1 monomer; source: E. coli Rosetta DE3, periplasm, purified (Ni-NTA, TEV cleavage, Superdex 75); not shown: DsbA, N-terminal, cleaved; His6, N-terminal, cleaved

[3] = biological target: the molecule itself; assay: crystal structure; pro-BMP9 mixed with ALK1 ECD at 1:1.5, 3.3 Å, space group P6_(1)
soluble endoglin (sENG) = biological target: T1, soluble endoglin (sENG); assay: SEC; analytical gel filtration, Superdex 200 10/300, 20 mM Tris.HCl, 150 mM NaCl, pH 7.4; 100 μg protein with 2-fold molar excess of ALK1 ECD; peaks checked by SDS-PAGE and anti-prodomain blot; conditions: both partners purified

T2 sequence (P37023 22-118): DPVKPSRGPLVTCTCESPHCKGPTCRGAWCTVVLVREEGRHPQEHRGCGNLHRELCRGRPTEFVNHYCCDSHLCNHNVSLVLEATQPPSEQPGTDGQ

stoichiometry N [2]	binding result (soluble endoglin (sENG))	Binder	stoichiometry N [1]	stoichiometry N [3]
1 ALK1 ECD per BMP10 monomer (2:2)	–	BMP10 GF-domain from pro-BMP10 (ligand, human, UniProt O95393 317-424, looked up, BMP10 GF-domain, human, the processed C-terminal product of full length proBMP10; also called BMP10 GF-domain disulphide-linked dimer; source: HEK EBNA, as part of purified pro-BMP10) NAKGNYCKRTPLYIDFKEIGWDSWIIAPPGYEAYECRGVCNYPLAEHLTPTKHAIIQALVHLKNSQKASKACCVPTKLEPISILYLDKGVVTYKFKYEGMAVSECGCR	2	–
–	binds	BMP9 GF-domain from pro-BMP9 (ligand, human, UniProt Q9UK05 320-429, looked up, BMP9 GF-domain, human, the processed C-terminal product of full-length proBMP9; also called BMP9 dimer; source: HEK EBNA, as part of purified pro-BMP9) SAGAGSHCQKTSLRVNFEDIGWDSWIIAPKEYEAYECKGGCFFPLADDVTPTKHAIVQTLVHLKFPTKVGKACCVPTKLSPISVLYKDDMGVPTLKYHYEGMSVAECGCR	–	2

— article PMC7113306, “Molecular basis of ALK1-mediated signalling by BMP9/BMP10 and their prodomain-bound forms” (Nature Communications, 2020)
